Molecular target: NGAL抗原 (中性粒细胞明胶酶相关载脂蛋白, Neutrophil gelatinase-associated lipocalin) (UniProt P80188 21-198)
Test: BLI, antibody captured on AMC sensor, NGAL in solution

Sequence of NGAL抗原 (中性粒细胞明胶酶相关载脂蛋白, Neutrophil gelatinase-associated lipocalin) (P80188 21-198 limits assumed): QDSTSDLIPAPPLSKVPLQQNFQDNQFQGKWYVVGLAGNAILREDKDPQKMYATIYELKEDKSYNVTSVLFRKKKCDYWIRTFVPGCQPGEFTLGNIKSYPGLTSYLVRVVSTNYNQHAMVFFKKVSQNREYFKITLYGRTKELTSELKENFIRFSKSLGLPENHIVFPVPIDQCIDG

B1: 实施例1的抗NGAL单克隆抗体(WT) (antibody, V domains shown)
VH: QIQLKESGPGLVQPSETLSLTCTVSGASVTSYSISWVRQPSGKGPEWMGRMYYNGDTLYNSVIKSRLSISRDTSKNQVFLKMNSLQTDDTGTYYCARDPILPPYFDYWGQGVMVTVSS
VL: DVQMTQSPSYLAASPGESVSISCKFSKSLSNYVAWYQQKPGEAYKLLTHSASTVQSGIPSRISGSGSGTDFTLTIRSLEPEEFGLYYCQQHYENPYTFGAGTKLELKR
Question: B1 was tested. Which Kd did it give?
Answer: 14.8 nM

Question: And the koff?
Answer: 0.000313 s⁻¹

Question: What about the kon of the same binder?
Answer: 21200 M⁻¹ s⁻¹

— patent CN114075280A (DONGGUAN PENGZHI BIOTECHNOLOGY CO LTD, dated 2022)
